The values that follow come from the supplement of paper PMC10724198.

± gives the standard deviation of the averaged measurements.

The subject of this series is Saccharomyces cerevisiae. Nature of the series: protein stability index of tFT-peptide fusion (C-terminal peptide) (PSI (0-1 scale)); higher = more stable (slower turnover). As to conditions: temperature: 30 C. As for the experimental part: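 MPS profiling in S. cerevisiae of the yeast C-terminome library: the last 12 aa of each annotated ORF are fused to the C-terminus of a sfGFP-mCherry timer, after a GGGS linker. Cells are FACS-sorted into 8 mCherry/sfGFP bins and deep-sequenced. PSI runs from 0 (unstable) to 1 (stable); wild type and das1Δ backgrounds, two technical replicates each.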

Where [1] appears, read: genetic background: das1 deletion.

Take EYSKKYLTTFFQ [YEA6 C-terminal 12 aa]: the protein stability index came out at 0.706 ± 0.025 under setting [1] and 0.722 ± 0.03 (genetic background: wild type).
As for FAAVSFVLGTGI [NCW1 C-terminal 12 aa], the protein stability index under setting [1] came out at 0.714 ± 0.008 and the protein stability index (genetic background: wild type) was determined as 0.709 ± 0.017.
In the case of FAEYNRLSAIPV [LAM1 C-terminal 12 aa], the protein stability index by setting is: under setting [1], 0.447 ± 0.015; (genetic background: wild type) 0.478 ± 0.02.
With FAGENFHHGDKL [ENO1 C-terminal 12 aa], the protein stability index under setting [1] was 0.707 ± 0.016 and the protein stability index (genetic background: wild type) stood at 0.706 ± 0.0078.
The corresponding values for FCHGAEDAWNIL [EMG1 C-terminal 12 aa] are 0.7275 ± 0.0017 and 0.712 ± 0.012.
Consider FCIFNNVVFPML [RRT1 C-terminal 12 aa], for which the protein stability index is, setting by setting: under setting [1], 0.717 ± 0.011; (genetic background: wild type) 0.7002 ± 0.0035.
For FCMGVAAFVTTA [UTP21 C-terminal 12 aa], the protein stability index runs as follows: under setting [1], 0.493 ± 0.013; (genetic background: wild type) 0.497 ± 0.0075.
Consider FDDDLTAQLYYP [TDA8 C-terminal 12 aa], for which the protein stability index runs as follows: under setting [1], 0.7291 ± 0.0033; (genetic background: wild type) 0.744 ± 0.043.
As to FDTSAQSDRKHS [DCV1 C-terminal 12 aa], the protein stability index is, setting by setting: under setting [1], 0.719 ± 0.011; (genetic background: wild type) 0.692 ± 0.018.
The corresponding values for FEDCCRWNEKQG [HIS6 C-terminal 12 aa] are 0.668 ± 0.022 and 0.694 ± 0.016.
The matching figures for FENGGKLKEVDK [MDM35 C-terminal 12 aa]: 0.686 ± 0.01 and 0.7211 ± 0.0027.
For “FFFPLFLFLYHL [YHR180W-A C-terminal 12 aa]”, the protein stability index turned out to be 0.436 ± 0.0054 under setting [1] and 0.306 ± 0.0032 (genetic background: wild type).
With FFMIMVMVINFI [FIG2 C-terminal 12 aa], the protein stability index was found to be 0.195 ± 0.03 under setting [1] and 0.199 ± 0.0042 (genetic background: wild type).
The corresponding values for FFTKLFKKKSSR [MSC3 C-terminal 12 aa] are 0.705 ± 0.02 and 0.6832 ± 0.0021.
The corresponding values for FFVFLFWWIFLK [SEC22 C-terminal 12 aa] are 0.155 ± 0.019 and 0.131 ± 0.015.
In the case of FGQDGCLYIYNQ [YHR045W C-terminal 12 aa], the protein stability index reads like this: under setting [1], 0.713 ± 0.015; (genetic background: wild type) 0.698 ± 0.021.
As to FHTLENHLKGNS [ADR1 C-terminal 12 aa], the protein stability index stood at 0.697 ± 0.02 under setting [1] and 0.731 ± 0.064 (genetic background: wild type).
For the sequence FIAQAEAEAETD [GRS1 C-terminal 12 aa], the protein stability index is 0.688 ± 0.014 under setting [1] and 0.669 ± 0.017 (genetic background: wild type).
The corresponding values for FIRKIYSAIKVE [TMN2 C-terminal 12 aa] are 0.385 ± 0.012 and 0.268 ± 0.016.
On to FKIFAKLFCTRK [HLR1 C-terminal 12 aa], for which the protein stability index under setting [1] came to 0.71093 ± 0.00038 and the protein stability index (genetic background: wild type) was found to be 0.6936 ± 0.0041.
The matching figures for FKKSVDQMNAST [PSY2 C-terminal 12 aa]: 0.692 ± 0.026 and 0.691 ± 0.017.
As for “FLSNEPTFLGCV [YPL135C-A C-terminal 12 aa]”, the protein stability index runs as follows: under setting [1], 0.72 ± 0.018; (genetic background: wild type) 0.722 ± 0.033.
In the case of FLVNTTNKKESD [YIL092W C-terminal 12 aa], the protein stability index runs as follows: under setting [1], 0.6861 ± 0.004; (genetic background: wild type) 0.693 ± 0.024.
Regarding FMSNTLFNSSLV [YPR003C C-terminal 12 aa], the protein stability index reads like this: under setting [1], 0.668 ± 0.012; (genetic background: wild type) 0.693 ± 0.037.
With FQRRSISGLGDL [INP1 C-terminal 12 aa], the protein stability index by setting is: under setting [1], 0.711 ± 0.0092; (genetic background: wild type) 0.676 ± 0.031.
The corresponding values for FQTITGEEKEKK [ECM16 C-terminal 12 aa] are 0.708 ± 0.027 and 0.728 ± 0.023.
For the sequence FRSQRLHMDSKP [BUD27 C-terminal 12 aa], the protein stability index is, setting by setting: under setting [1], 0.727 ± 0.018; (genetic background: wild type) 0.6682 ± 0.0053.
FSALMGESDDEE [TIF4631 C-terminal 12 aa]: the protein stability index is 0.659 ± 0.019 under setting [1] and 0.678 ± 0.047 (genetic background: wild type).
As to FSTWDIADKQEA [PMT2 C-terminal 12 aa], the protein stability index by setting is: under setting [1], 0.717 ± 0.016; (genetic background: wild type) 0.732 ± 0.023.
Turning to FSVEQREKPSNN [GRX6 C-terminal 12 aa], the protein stability index amounted to 0.69394 ± 0.0003 under setting [1] and 0.69949 ± 0.00033 (genetic background: wild type).
In the case of FTPSNQSHGNFY [TEC1 C-terminal 12 aa], the protein stability index under setting [1] came to 0.718 ± 0.015 and the protein stability index (genetic background: wild type) came out at 0.662 ± 0.007.
Consider FVYKGVRKPKRN [SEN15 C-terminal 12 aa], for which the protein stability index under setting [1] stood at 0.752 ± 0.033 and the protein stability index (genetic background: wild type) came out at 0.778 ± 0.1.
Consider FYHVFDEPRYYL [CWH43 C-terminal 12 aa], for which the protein stability index was 0.7524 ± 0.0054 under setting [1] and 0.7087 ± 0.0018 (genetic background: wild type).
Take GAGALAAAAMLL [CWP2 C-terminal 12 aa]: the protein stability index by setting is: under setting [1], 0.711 ± 0.032; (genetic background: wild type) 0.665 ± 0.027.
Regarding GASAEDNTHPDE [NAB6 C-terminal 12 aa], the protein stability index was 0.694 ± 0.011 under setting [1] and 0.681 ± 0.046 (genetic background: wild type).
The corresponding values for GDENFVILEFEC [OAZ1 C-terminal 12 aa] are 0.7 ± 0.019 and 0.732 ± 0.036.
Consider GDIIKLRESVNA [YJL215C C-terminal 12 aa], for which the protein stability index under setting [1] was 0.6729 ± 0.0061 and the protein stability index (genetic background: wild type) worked out at 0.73 ± 0.05.
Regarding GDLVNAIMSLSK [EGD2 C-terminal 12 aa], the protein stability index reads like this: under setting [1], 0.696 ± 0.013; (genetic background: wild type) 0.696 ± 0.025.
The matching figures for GEASTGNRLSFK [BNI1 C-terminal 12 aa]: 0.719 ± 0.013 and 0.72 ± 0.022.
The corresponding values for GFLGIRWGPRKD [TIM21 C-terminal 12 aa] are 0.7247 ± 0.00099 and 0.6861 ± 0.006.
On to GFQATVGKRRRM [SUI3 C-terminal 12 aa], for which the protein stability index came to 0.699 ± 0.019 under setting [1] and 0.703 ± 0.0081 (genetic background: wild type).
Sequence GGIRKISGSIKK [CDC14 C-terminal 12 aa] yielded a protein stability index under setting [1] of 0.71 ± 0.01 and a protein stability index (genetic background: wild type) of 0.667 ± 0.037.
For the sequence GGSRGGFRGGRR [GAR1 C-terminal 12 aa], the protein stability index runs as follows: under setting [1], 0.685 ± 0.041; (genetic background: wild type) 0.707 ± 0.041.
The matching figures for GHLSSSRRRLRT [SUV3 C-terminal 12 aa]: 0.7217 ± 0.0043 and 0.7 ± 0.034.
In the case of GIDVHYVFRTYH [CIN10 C-terminal 12 aa], the protein stability index by setting is: under setting [1], 0.704 ± 0.012; (genetic background: wild type) 0.6311 ± 0.0031.
For GKTTYSEVWAGY [VVS1 C-terminal 12 aa], the protein stability index runs as follows: under setting [1], 0.746 ± 0.04; (genetic background: wild type) 0.741 ± 0.013.
Turning to GLFPSNYVSLGN [ABP1 C-terminal 12 aa], the protein stability index by setting is: under setting [1], 0.689 ± 0.0081; (genetic background: wild type) 0.721 ± 0.01.
In the case of GLLLPLCHRKRS [YOR012W C-terminal 12 aa], the protein stability index runs as follows: under setting [1], 0.706 ± 0.015; (genetic background: wild type) 0.411 ± 0.039.
Regarding GLRVANPDSDPE [YDR239C C-terminal 12 aa], the protein stability index is 0.7 ± 0.0077 under setting [1] and 0.721 ± 0.081 (genetic background: wild type).
The corresponding values for GLSLSFSKKLDL [DSN1 C-terminal 12 aa] are 0.685 ± 0.023 and 0.671 ± 0.026.
With “GSTSCPLLRLSR [YHR073C-B C-terminal 12 aa]”, the protein stability index under setting [1] came to 0.707 ± 0.021 and the protein stability index (genetic background: wild type) amounted to 0.685 ± 0.013.
The matching figures for GYAKTWSIASAN [CTT1 C-terminal 12 aa]: 0.714 ± 0.011 and 0.674 ± 0.028.
On to GYCKVHPVSDSK [ASI1 C-terminal 12 aa], for which the protein stability index was determined as 0.706 ± 0.0072 under setting [1] and 0.656 ± 0.036 (genetic background: wild type).
On to HAGTRPVLLLQK [YKL053W C-terminal 12 aa], for which the protein stability index is, setting by setting: under setting [1], 0.694 ± 0.016; (genetic background: wild type) 0.674 ± 0.04.
For the sequence HCTVVLPSILKR [YHR217C C-terminal 12 aa], the protein stability index under setting [1] turned out to be 0.714 ± 0.024 and the protein stability index (genetic background: wild type) came to 0.705 ± 0.0033.
Consider HDHHNDVPEAPV [RAD1 C-terminal 12 aa], for which the protein stability index worked out at 0.6941 ± 0.0012 under setting [1] and 0.692 ± 0.022 (genetic background: wild type).
HEEVKHTADTVD [CDC37 C-terminal 12 aa] registered a protein stability index under setting [1] of 0.71118 ± 0.00024 and a protein stability index (genetic background: wild type) of 0.67 ± 0.018.
As to HEWKTSINAIST [SWT1 C-terminal 12 aa], the protein stability index was 0.6881 ± 0.0024 under setting [1] and 0.727 ± 0.079 (genetic background: wild type).
For HFKTLVEAFTRN [VPS52 C-terminal 12 aa], the protein stability index by setting is: under setting [1], 0.709 ± 0.0082; (genetic background: wild type) 0.714 ± 0.047.
As to HFQYKGKPSRRF [BUB1 C-terminal 12 aa], the protein stability index is, setting by setting: under setting [1], 0.693 ± 0.012; (genetic background: wild type) 0.685 ± 0.035.
Turning to HISLKCIVYKEY [YER135C C-terminal 12 aa], the protein stability index by setting is: under setting [1], 0.638 ± 0.0081; (genetic background: wild type) 0.665 ± 0.016.
In the case of HKGAVCVALNDV [LST8 C-terminal 12 aa], the protein stability index turned out to be 0.6883 ± 0.0052 under setting [1] and 0.696 ± 0.051 (genetic background: wild type).
The sequence HKGNGTDKVFVF [AIM33 C-terminal 12 aa] yielded a protein stability index under setting [1] of 0.7139 ± 0.001 and a protein stability index (genetic background: wild type) of 0.693 ± 0.017.
HKNHSVPRLIQV [YCL068C C-terminal 12 aa]: the protein stability index under setting [1] was 0.6194 ± 0.0049 and the protein stability index (genetic background: wild type) came to 0.654 ± 0.048.
Regarding HKQCDSLLDRLK [PTA1 C-terminal 12 aa], the protein stability index runs as follows: under setting [1], 0.698 ± 0.024; (genetic background: wild type) 0.7053 ± 0.0067.
With HLEKKEPKSRKK [YDL129W C-terminal 12 aa], the protein stability index under setting [1] worked out at 0.724 ± 0.013 and the protein stability index (genetic background: wild type) was 0.689 ± 0.03.
The matching figures for HLTKLCIFPGLP [YLR282C C-terminal 12 aa]: 0.68857 ± 5.1e-05 and 0.70209 ± 0.00069.
